Legend:
Test in all cases: cell-based or functional assay
[1] = biological target: T1, cynomolgus monkey RXFP1 receptor (cynomolgus monkey)
T1 sequence: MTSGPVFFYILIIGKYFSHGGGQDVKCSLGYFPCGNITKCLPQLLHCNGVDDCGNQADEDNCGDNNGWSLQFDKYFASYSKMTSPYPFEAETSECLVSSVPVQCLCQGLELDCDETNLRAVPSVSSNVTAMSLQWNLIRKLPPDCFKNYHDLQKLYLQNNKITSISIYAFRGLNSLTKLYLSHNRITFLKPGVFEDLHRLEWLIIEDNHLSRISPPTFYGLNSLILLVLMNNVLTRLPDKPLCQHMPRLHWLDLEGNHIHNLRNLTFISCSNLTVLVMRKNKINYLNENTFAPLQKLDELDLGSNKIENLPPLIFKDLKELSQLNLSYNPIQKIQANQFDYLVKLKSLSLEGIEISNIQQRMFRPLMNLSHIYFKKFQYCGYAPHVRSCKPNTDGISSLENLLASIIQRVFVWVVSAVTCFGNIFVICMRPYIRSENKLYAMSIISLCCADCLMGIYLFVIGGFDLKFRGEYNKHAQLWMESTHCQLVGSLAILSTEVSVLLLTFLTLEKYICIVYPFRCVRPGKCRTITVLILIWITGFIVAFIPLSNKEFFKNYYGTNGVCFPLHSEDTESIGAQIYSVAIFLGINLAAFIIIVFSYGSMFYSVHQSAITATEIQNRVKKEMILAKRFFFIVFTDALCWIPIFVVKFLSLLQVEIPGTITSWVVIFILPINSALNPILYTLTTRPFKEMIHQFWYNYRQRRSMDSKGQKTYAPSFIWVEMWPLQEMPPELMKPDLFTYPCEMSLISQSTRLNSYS

dog RXFP1 receptor (dog) = biological target: dog RXFP1 receptor (dog)
[2] = biological target: T2, human RXFP1 receptor (human) (UniProt Q9HBX9)
T2 sequence (looked up): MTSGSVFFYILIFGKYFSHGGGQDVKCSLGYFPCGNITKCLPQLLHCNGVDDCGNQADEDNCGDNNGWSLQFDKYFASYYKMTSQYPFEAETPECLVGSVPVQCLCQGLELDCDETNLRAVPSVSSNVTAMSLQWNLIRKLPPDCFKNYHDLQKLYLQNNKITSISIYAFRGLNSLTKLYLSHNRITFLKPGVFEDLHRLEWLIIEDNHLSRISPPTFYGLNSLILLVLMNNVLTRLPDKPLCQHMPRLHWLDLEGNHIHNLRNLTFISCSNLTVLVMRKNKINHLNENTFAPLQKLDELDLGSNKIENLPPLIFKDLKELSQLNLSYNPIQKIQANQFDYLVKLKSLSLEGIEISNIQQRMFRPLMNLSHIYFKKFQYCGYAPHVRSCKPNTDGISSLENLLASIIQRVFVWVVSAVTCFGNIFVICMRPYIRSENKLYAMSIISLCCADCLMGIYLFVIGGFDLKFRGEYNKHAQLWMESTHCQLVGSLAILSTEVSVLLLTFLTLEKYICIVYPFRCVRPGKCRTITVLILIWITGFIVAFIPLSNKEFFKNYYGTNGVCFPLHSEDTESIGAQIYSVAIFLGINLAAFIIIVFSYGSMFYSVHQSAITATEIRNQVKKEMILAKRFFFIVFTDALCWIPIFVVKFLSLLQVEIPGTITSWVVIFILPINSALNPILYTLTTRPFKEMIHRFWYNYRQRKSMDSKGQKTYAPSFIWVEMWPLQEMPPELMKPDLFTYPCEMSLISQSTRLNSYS

[3] = biological target: human RXFP2 receptor (human) (UniProt Q8WXD0)
[4] = biological target: T3, mouse RXFP1 receptor (mouse) (UniProt Q6R6I7)
T3 sequence (looked up): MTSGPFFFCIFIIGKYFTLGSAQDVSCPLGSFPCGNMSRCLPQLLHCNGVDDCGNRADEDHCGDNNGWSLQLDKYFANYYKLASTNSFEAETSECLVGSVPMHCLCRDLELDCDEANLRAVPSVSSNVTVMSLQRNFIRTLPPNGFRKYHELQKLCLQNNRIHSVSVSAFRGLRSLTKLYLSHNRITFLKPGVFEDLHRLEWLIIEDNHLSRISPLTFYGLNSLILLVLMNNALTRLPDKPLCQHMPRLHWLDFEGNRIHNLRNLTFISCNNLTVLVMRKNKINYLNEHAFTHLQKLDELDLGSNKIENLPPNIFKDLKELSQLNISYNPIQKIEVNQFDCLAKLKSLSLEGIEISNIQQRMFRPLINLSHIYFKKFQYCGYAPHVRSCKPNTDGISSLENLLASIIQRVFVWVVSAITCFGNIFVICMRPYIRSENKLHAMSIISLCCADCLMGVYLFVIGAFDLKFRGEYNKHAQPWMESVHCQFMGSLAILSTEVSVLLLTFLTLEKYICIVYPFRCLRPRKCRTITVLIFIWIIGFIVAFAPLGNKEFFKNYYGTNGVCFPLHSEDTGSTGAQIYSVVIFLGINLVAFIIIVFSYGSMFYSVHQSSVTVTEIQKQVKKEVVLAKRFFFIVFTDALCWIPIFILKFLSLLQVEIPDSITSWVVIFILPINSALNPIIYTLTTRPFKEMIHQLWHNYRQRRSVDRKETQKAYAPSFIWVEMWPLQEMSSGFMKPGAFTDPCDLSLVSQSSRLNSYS

rat RXFP1 receptor (rat) = biological target: T4, rat RXFP1 receptor (rat) (UniProt Q6R6I6)
T4 sequence (looked up): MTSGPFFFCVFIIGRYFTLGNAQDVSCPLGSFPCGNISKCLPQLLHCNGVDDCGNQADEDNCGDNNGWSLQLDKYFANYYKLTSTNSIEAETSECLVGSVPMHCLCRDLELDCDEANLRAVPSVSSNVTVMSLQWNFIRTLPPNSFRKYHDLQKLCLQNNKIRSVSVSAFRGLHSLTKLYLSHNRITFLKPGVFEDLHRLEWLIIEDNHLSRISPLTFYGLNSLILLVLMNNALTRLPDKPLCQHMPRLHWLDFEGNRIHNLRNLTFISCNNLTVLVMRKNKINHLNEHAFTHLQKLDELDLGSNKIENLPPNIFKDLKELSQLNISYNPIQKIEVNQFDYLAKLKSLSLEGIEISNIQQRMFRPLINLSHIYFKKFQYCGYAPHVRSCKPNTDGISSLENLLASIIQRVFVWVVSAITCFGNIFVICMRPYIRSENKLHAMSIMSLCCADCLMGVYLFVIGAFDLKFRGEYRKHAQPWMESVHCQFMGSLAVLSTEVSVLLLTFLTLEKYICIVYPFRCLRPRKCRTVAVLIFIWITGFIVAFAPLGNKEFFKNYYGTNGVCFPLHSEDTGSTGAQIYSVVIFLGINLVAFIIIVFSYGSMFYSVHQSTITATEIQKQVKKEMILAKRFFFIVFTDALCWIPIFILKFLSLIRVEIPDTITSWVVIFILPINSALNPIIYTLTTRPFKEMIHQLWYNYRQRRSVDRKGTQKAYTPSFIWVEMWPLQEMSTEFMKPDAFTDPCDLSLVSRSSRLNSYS

B1: 0054 (protein)
chain: EVQLLESGGGLVQPGGSLRLSCAASGRYIDETAVAWFRQAPGKGREFVAGIGGGVDITYYADSVKGRFTISRDNSKNTLYLQMNSLRPEDTAVYYCAARPGRPLITSKVADLYPYWGQGTLVTVSSGGGGQGGGGQGGGGQGGGGQGGGGQSWMEEVIKLCGRELVRAQIAICGMSTWSGGGSGGSGGGQLYSALANKCCHVGCTKRSLARFC
- EC50 (nM), cAMP production in CHO-K1 cells with receptor overexpression [1]: 21.8 nM
- EC50 (nM), cAMP production in CHO-K1 cells with receptor overexpression (dog RXFP1 receptor (dog)): 3040 nM
- EC50 (nM), cAMP production in CHO-K1 cells with receptor overexpression [2]: 25.6 nM
- EC50 (nM), cAMP production in THP1 cells, 1% HSA [2]: 15.8 nM
- EC50 (nM), cAMP production in THP1 cells, without HSA [2]: 10.3 nM
- EC50 (nM), cAMP production in CHO-K1 cells with receptor overexpression [3]: 1350 nM
- EC50 (nM), cAMP production in CHO-K1 cells with receptor overexpression [4]: 23.4 nM
- EC50 (nM), cAMP production in CHO-K1 cells with receptor overexpression (rat RXFP1 receptor (rat)): 10.5 nM

Reference: patent US20250312444A1
